Assay results from patent publication US20230365662A1.
Changes are numbered by the printed parent chain. Names and notes keep the numbering of the source. Values joined by “and” are separate entries in the source; they are usually repeats but may differ in a detail not shown here. Equal entries are not always repeated.

How the values were obtained:
[1] = target: HRgpA-6H (Porphyromonas gingivalis) (UniProt P28784); assay: ELISA, Fab FASEBA supernatant on coated HRgpA-6H
[2] = target: HRgpA-6H (Porphyromonas gingivalis) (UniProt P28784); assay: ELISA, Fab FASEBA supernatant on coated HRgpA-6H (0.0625 ug/ml)

Sequence of UniProt P28784 (P28784 228-991 limits assumed): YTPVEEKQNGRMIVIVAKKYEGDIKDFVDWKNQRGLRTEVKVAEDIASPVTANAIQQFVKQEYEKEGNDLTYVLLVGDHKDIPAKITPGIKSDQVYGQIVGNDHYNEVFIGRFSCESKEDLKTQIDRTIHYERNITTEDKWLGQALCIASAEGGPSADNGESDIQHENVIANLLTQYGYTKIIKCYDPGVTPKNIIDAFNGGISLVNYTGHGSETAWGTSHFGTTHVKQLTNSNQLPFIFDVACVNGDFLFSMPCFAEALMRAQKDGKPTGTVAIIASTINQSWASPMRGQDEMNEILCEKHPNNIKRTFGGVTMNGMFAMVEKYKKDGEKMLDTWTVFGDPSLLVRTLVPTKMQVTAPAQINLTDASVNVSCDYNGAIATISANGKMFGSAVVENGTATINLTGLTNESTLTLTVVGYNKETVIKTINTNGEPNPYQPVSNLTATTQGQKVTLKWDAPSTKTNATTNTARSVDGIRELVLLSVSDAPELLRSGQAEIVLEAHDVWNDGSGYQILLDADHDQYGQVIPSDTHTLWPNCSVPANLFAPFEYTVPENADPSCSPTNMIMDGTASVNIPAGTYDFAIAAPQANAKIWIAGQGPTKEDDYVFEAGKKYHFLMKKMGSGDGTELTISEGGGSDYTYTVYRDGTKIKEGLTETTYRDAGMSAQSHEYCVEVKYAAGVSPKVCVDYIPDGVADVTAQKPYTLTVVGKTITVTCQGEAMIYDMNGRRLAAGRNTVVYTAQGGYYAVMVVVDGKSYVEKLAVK

B1: parental mouse (KB001) Fab FASEBA, VL variant Y92D (Fab, V domains shown)
VH: EVQLKQSGPGLVAPSQSLSITCTVSGFSLSIYSVHWVRQPPGKGLEWLGMIWGGGSSDYNSALKSRLSISKDNSKSQVFLKMNSLQTDDTAMYYCARNGNFYAMDYWGQGTSVTVSS
VL: QIVLTQSPAIMSASLGERVTMTCTASSSVSSSFLHWYQQKPGSSPQLWIYSTSNLASGVPARFSGSGSGTSYSLTISSMEAEDAATYYCHQDHHSPYIYTFGGGTKLEIK
With B1 the OD450nm [1] was 0.758 OD450nm and the Ratio OD(Variant)/OD(WT) [1] was 0.805 ratio to WT.

B2: parental mouse (KB001) Fab FASEBA, VL variant S95C (Fab, V domains shown)
VH: B1 VH
VL: B1 VL with D92Y, S95C
In the case of B2, the OD450nm [1] is reported as 0.849 OD450nm and the Ratio OD(Variant)/OD(WT) [1] is reported as 0.924 ratio to WT.

B3: KB001 parental mouse Fab VH variant K64D (Fab, V domains shown)
VH: B1 VH with K64D
VL: B1 VL with D92Y
With B3 the OD450nm [2] was 0.781 and the Ratio OD(Variant)/OD(WT) [2] was 0.944.

B4: KB001 parental mouse Fab VH variant K64L (Fab, V domains shown)
VH: B1 VH with K64L
VL: B1 VL with D92Y
In the case of B4, the OD450nm [2] is reported as 0.664 and the Ratio OD(Variant)/OD(WT) [2] is reported as 0.803.

B5: parental mouse (KB001) Fab FASEBA, VL variant I98M (Fab, V domains shown)
VH: B1 VH
VL: B1 VL with D92Y, I98M
With B5 the OD450nm [1] was 0.729 OD450nm and the Ratio OD(Variant)/OD(WT) [1] was 0.833 ratio to WT.

B6: parental mouse (KB001) Fab FASEBA, VL variant Y97S (Fab, V domains shown)
VH: B1 VH
VL: B1 VL with D92Y, Y97S
With B6 the OD450nm [1] was 0.633 OD450nm and the Ratio OD(Variant)/OD(WT) [1] was 0.802 ratio to WT.

B7: parental mouse (KB001) Fab FASEBA, VL variant Y97Q (Fab, V domains shown)
VH: B1 VH
VL: B1 VL with D92Y, Y97Q
With B7 the OD450nm [1] was 0.687 OD450nm and the Ratio OD(Variant)/OD(WT) [1] was 0.871 ratio to WT.

B8: KB001 parental mouse Fab VH variant K64M (Fab, V domains shown)
VH: B1 VH with K64M
VL: B1 VL with D92Y
B8 was tested, and the OD450nm [2] was 0.784 and the Ratio OD(Variant)/OD(WT) [2] was 0.948.

B9: parental mouse (KB001) Fab FASEBA, VL variant Y97H (Fab, V domains shown)
VH: B1 VH
VL: B1 VL with D92Y, Y97H
B9 was tested, and the OD450nm [1] was 0.775 OD450nm and the Ratio OD(Variant)/OD(WT) [1] was 0.982 ratio to WT.

B10: parental mouse (KB001) Fab FASEBA, VL variant I98R (Fab, V domains shown)
VH: B1 VH
VL: B1 VL with D92Y, I98R
With B10 the OD450nm [1] was 0.726 OD450nm and 0.722 OD450nm and the Ratio OD(Variant)/OD(WT) [1] was 0.83 ratio to WT and 0.825 ratio to WT.

B11: parental mouse (KB001) Fab FASEBA, VL variant Y97L (Fab, V domains shown)
VH: B1 VH
VL: B1 VL with D92Y, Y97L
For B11, the OD450nm [1] was 0.739 OD450nm and the Ratio OD(Variant)/OD(WT) [1] was 0.937 ratio to WT.

B12: parental mouse (KB001) Fab FASEBA, VL variant Y92N (Fab, V domains shown)
VH: B1 VH
VL: B1 VL with D92N
B12 was tested, and the OD450nm [1] was 0.773 OD450nm and the Ratio OD(Variant)/OD(WT) [1] was 0.821 ratio to WT.

B13: parental mouse (KB001) Fab FASEBA, VL variant I98L (Fab, V domains shown)
VH: B1 VH
VL: B1 VL with D92Y, I98L
In the case of B13, the OD450nm [1] is reported as 0.836 OD450nm and the Ratio OD(Variant)/OD(WT) [1] is reported as 0.955 ratio to WT.

B14: parental mouse (KB001) Fab FASEBA, VL variant S95F (Fab, V domains shown)
VH: B1 VH
VL: B1 VL with D92Y, S95F
In the case of B14, the OD450nm [1] is reported as 0.837 OD450nm and the Ratio OD(Variant)/OD(WT) [1] is reported as 0.911 ratio to WT.

B15: parental mouse (KB001) Fab FASEBA, VL variant S95W (Fab, V domains shown)
VH: B1 VH
VL: B1 VL with D92Y, S95W
For B15, the OD450nm [1] was 0.804 OD450nm and 0.79 OD450nm and the Ratio OD(Variant)/OD(WT) [1] was 0.875 ratio to WT and 0.86 ratio to WT.

B16: KB001 parental mouse Fab VH variant K64Q (Fab, V domains shown)
VH: B1 VH with K64Q
VL: B1 VL with D92Y
With B16 the OD450nm [2] was 0.789 and the Ratio OD(Variant)/OD(WT) [2] was 0.954.

B17: parental mouse (KB001) Fab FASEBA, VL variant Y97F (Fab, V domains shown)
VH: B1 VH
VL: B1 VL with D92Y, Y97F
For B17, the OD450nm [1] was 0.75 OD450nm and 0.756 OD450nm and the Ratio OD(Variant)/OD(WT) [1] was 0.951 ratio to WT and 0.958 ratio to WT.

B18: parental mouse (KB001) Fab FASEBA, VL variant S95H (Fab, V domains shown)
VH: B1 VH
VL: B1 VL with D92Y, S95H
With B18 the OD450nm [1] was 0.8 OD450nm and the Ratio OD(Variant)/OD(WT) [1] was 0.871 ratio to WT.

B19: parental mouse (KB001) Fab FASEBA, VL variant H94Y (Fab, V domains shown)
VH: B1 VH
VL: B1 VL with D92Y, H94Y
B19 was tested, and the OD450nm [1] was 0.865 OD450nm and the Ratio OD(Variant)/OD(WT) [1] was 0.942 ratio to WT.

B20: parental mouse (KB001) Fab FASEBA, VL variant Y97K (Fab, V domains shown)
VH: B1 VH
VL: B1 VL with D92Y, Y97K
B20 was tested, and the OD450nm [1] was 0.654 OD450nm and the Ratio OD(Variant)/OD(WT) [1] was 0.829 ratio to WT.
